Laboratory results as given in patent publication US20080274967.
Where a chain is given by its changes, count along the chain named.

Columns and labels:
[1] = tested on: T1, PEDF EEA variant (S24,114E, 227A)
T1 sequence: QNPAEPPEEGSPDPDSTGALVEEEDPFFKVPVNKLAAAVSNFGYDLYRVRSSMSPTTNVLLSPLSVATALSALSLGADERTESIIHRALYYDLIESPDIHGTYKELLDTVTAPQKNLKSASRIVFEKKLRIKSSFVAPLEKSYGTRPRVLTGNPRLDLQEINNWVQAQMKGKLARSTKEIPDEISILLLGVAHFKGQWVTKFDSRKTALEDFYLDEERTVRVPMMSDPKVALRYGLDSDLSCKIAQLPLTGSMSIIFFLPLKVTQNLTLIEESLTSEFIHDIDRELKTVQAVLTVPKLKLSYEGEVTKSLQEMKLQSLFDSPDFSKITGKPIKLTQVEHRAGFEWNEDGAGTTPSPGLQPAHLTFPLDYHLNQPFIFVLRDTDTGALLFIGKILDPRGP

[2] = tested on: T2, Recombinant human pigment epithelium derived factor (rPEDF)
T2 sequence: T1 sequence with E5S, E95S, A208S

PEDF S24,114E variant = tested on: T3, PEDF S24,114E variant
T3 sequence: T1 sequence with A208S

[3] = tested on: T4, PEDF EEE variant (S24,114, 227E)
T4 sequence: T1 sequence with A208E

[4] = tested on: T5, PEDF AAA variant (S24,114, 227A)
T5 sequence: T1 sequence with E5A, E95A

[5] = tested on: T6, PEDF AAE variant (S24,114A, 227E)
T6 sequence: T1 sequence with E5A, E95A, A208E

“Catalytic subunit of protein kinase A (PKA)” was tested, and the “in vitro phosphorylation by PKA” value [1] was “none of the triple mutants was phosphorylated by PKA”, the “in vitro phosphorylation by PKA ([γ32P]-ATP, SDS-PAGE, autoradiography)” value [2] was “rPEDF served as a good substrate to PKA” and the “in vitro phosphorylation by PKA after brief heat treatment of the variant” value (PEDF S24,114E variant) was “a brief heat treatment ... restored its phosphorylation by PKA”. The “in vitro phosphorylation by PKA” value [3] was “none of the triple mutants was phosphorylated by PKA”, the “in vitro phosphorylation by PKA” value [4] was “none of the triple mutants was phosphorylated by PKA” and the “in vitro phosphorylation by PKA” value [5] was “none of the triple mutants was phosphorylated by PKA”.
